How the values were obtained:
[1] = molecular target: mChe-INPP5E (UniProt Q9NRR6); test: immunoblotting of anti-GFP Nb precipitates (band intensity of mChe-INPP5E); details: lysates of HEK293T cells coexpressing both constructs; three independent experiments; parent: 100; read off a plot
[2] = molecular target: mChe-INPP5E (UniProt Q9NRR6); test: VIP assay (fluorescence intensity of mChe-INPP5E on GST-anti-GFP Nb beads); details: lysates of HEK293T cells coexpressing both constructs; three independent experiments; parent: 100; read off a plot

ARL13B(WT)-EGFP, Q3SXY8 AAEA (RVEP mutated to AAEA), sequence (Q3SXY8 other isoform, or with tags, fused parts or gaps AAEA (RVEP mutated to AAEA)): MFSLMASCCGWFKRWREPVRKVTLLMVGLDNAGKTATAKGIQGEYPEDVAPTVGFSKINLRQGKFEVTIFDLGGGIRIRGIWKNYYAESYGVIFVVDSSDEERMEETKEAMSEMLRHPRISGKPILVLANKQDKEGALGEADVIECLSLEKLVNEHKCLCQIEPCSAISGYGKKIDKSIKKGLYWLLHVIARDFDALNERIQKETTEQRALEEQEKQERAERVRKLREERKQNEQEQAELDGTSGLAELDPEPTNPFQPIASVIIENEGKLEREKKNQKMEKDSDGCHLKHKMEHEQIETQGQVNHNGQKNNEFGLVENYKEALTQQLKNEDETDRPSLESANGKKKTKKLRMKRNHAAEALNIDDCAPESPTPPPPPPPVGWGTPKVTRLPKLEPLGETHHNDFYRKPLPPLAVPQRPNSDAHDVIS
mChe-INPP5E, sequence (Q9NRR6 whole entry): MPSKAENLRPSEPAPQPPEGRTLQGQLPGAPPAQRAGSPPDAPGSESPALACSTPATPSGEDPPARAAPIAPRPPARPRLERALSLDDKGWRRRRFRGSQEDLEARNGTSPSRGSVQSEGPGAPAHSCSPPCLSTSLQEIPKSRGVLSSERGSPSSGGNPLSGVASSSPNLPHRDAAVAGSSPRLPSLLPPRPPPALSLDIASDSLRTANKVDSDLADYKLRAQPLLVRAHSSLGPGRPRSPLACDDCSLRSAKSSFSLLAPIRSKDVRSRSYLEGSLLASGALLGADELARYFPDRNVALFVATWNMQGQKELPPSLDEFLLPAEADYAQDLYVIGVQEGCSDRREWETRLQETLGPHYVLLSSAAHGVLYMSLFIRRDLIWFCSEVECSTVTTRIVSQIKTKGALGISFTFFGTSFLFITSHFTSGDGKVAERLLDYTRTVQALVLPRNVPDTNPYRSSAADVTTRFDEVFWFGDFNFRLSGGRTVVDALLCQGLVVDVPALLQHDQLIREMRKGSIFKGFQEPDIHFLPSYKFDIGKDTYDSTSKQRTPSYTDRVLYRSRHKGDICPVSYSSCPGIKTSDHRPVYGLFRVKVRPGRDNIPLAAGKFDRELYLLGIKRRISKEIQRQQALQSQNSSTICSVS

- percent of parent (% of ARL13B(WT)-EGFP) [1]: 110
- percent of parent (% of ARL13B(WT)-EGFP) [2]: 100
Substance: ARL13B(WT)-EGFP, Q3SXY8 AAEA (RVEP mutated to AAEA)
